In publication doi:10.1101/2022.07.22.501097v1 (biorxiv, 2022):

T1: BglC (Thermobifida fusca, UniProt Q9LAV5)
T1 sequence (Q9LAV5 1-484): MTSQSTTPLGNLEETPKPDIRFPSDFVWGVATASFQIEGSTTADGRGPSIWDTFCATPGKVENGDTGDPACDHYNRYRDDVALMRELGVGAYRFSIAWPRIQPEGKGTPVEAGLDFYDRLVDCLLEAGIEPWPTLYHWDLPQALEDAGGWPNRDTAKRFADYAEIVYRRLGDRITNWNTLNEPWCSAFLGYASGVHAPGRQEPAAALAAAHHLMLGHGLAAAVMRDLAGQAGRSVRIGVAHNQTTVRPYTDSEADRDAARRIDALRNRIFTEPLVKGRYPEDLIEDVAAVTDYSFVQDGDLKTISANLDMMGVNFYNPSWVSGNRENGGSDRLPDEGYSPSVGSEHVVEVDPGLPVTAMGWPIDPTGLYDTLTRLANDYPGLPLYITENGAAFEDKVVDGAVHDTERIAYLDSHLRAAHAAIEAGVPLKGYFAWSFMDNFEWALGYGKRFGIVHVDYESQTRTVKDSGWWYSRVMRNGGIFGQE


Key:
BglC = target: T1, BglC; test: 4-nitrophenol release at […] nm, continuous plate assay, non-linear regression; format: biochemical
purified protein = substrate: O=[N+]([O-])c1ccc(O[C@@H]2O[C@H](CO)[C@@H](O)[C@H](O)[C@H]2O)cc1; test: purified protein; settings: 100 mM sodium phosphate pH 7.0, 37 °C, 2.63 nM enzyme

| Ki (BglC) [µM] | Molecule | Km (purified protein) [µM] | kcat (purified protein) [s⁻¹] |
| --- | --- | --- | --- |
| 6.63 ± 1.3 | O=C1O[C@H](CO)[C@@H](O)[C@H](O)[C@H]1O [D-glucono-δ-lactone] | – | – |
| – | BglC (Thermobifida fusca) (protein) MTSQSTTPLGNLEETPKPDIRFPSDFVWGVATASFQIEGSTTADGRGPSIWDTFCATPGKVENGDTGDPACDHYNRYRDDVALMRELGVGAYRFSIAWPRIQPEGKGTPVEAGLDFYDRLVDCLLEAGIEPWPTLYHWDLPQALEDAGGWPNRDTAKRFADYAEIVYRRLGDRITNWNTLNEPWCSAFLGYASGVHAPGRQEPAAALAAAHHLMLGHGLAAAVMRDLAGQAGRSVRIGVAHNQTTVRPYTDSEADRDAARRIDALRNRIFTEPLVKGRYPEDLIEDVAAVTDYSFVQDGDLKTISANLDMMGVNFYNPSWVSGNRENGGSDRLPDEGYSPSVGSEHVVEVDPGLPVTAMGWPIDPTGLYDTLTRLANDYPGLPLYITENGAAFEDKVVDGAVHDTERIAYLDSHLRAAHAAIEAGVPLKGYFAWSFMDNFEWALGYGKRFGIVHVDYESQTRTVKDSGWWYSRVMRNGGIFGQE | 560 ± 10 | 48.68 |
